Reference: patent US20150011431A1 (Scripps Research, published 2015)
Positions count from the first letter of the chain named. Names may count otherwise.

T1: CXCR1 (UniProt P25024 1-350, limits assumed)
T1 construct: whole, on cells; DiscoveRx cells engineered with a luminescent reporter enzyme for beta-arrestin recruitment; also called CXCR1-U2OS; U2OS-CXCR1
T1 sequence (looked up): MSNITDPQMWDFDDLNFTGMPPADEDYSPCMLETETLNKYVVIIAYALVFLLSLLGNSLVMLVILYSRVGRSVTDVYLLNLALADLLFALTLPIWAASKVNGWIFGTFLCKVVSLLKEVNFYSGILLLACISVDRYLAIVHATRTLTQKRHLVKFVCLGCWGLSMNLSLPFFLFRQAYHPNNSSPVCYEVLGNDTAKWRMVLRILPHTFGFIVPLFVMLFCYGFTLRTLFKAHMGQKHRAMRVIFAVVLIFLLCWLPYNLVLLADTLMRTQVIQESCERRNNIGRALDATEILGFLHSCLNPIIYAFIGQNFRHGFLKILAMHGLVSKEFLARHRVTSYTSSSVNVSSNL

B1: BLV1H12 IgG (antibody)
VH: QVQLRESGPSLVKPSQTLSLTCTASGFSLSDKAVGWVRQAPGKALEWLGSIDTGGNTGYNPGLKSRLSITKDNSKSQVSLSVSSVTTEDSATYYCTSVHQETKKYQSCPDGYRERSDCSNRPACGTSDCCRVSVFGNCLTTLPVSYSYTYNYEWHVDVWGQGLLVTVSS
light: not shown
notes: also called ULcowV
B2: IgG with VH4-34+CDR3-IL8_CDR1 Cow_CDR2 Cow and light chain V1-51 (antibody)
heavy: not shown
light: QSVLTQPPSVSAAPGQKVTISCSGSSSNIGNNYVSWYQQLPGTAPKLLIYDNNKRPSGIPDRFSGSKSGTSATLGITGLQTGDEADYYCASAEDSSSNAVFGSGTTLTVLGQPKAAPSVTLFPPSSEELQANKATLVCLISDFYPGAVTVAWKADSSPVKAGVETTTPSKQSNNKYAASSYLSLTPEQWKSHRSYSCQVTHEGSTVEKTVAPTECS
notes: IgG, human IgG1 CH1-CH2-CH3; supernatant; also called Cow / Cow / V1-51; VH4-34 CDR3-IL8 CDR1-Cow & CDR2-Cow with V1-51
B3: IgG with VH4-34+CDR3-IL8 (antibody)
VH: QVQLQQWGAGLLKPSETLSLTCAVYGGSFSGYYWSWIRQPPGKGLEWIGEINHSGSTNYNPSLKSRVTISVDTSKNQFSLKLSSVTAADTAVYYCTSVHQETKKYQSPRSAKELRCQCIKTYSKPFHPKFIKELRVIESGPHCANTEIIVKLSDGRELCLDPKENWVQRVVEKFLKRAENSGSGSYTYNYEWHVDVWGQGLLVTVSSAS
light: not shown
notes: IgG; VH cloned before human IgG1 CH1-CH2-CH3 in HC pFuse; cell culture supernatant; also called VH4-34 BLVCDR3IL8
B4: IgG with VH4-34+CDR3-IL8_CDR1 G31D, Y32K and BLV1H12 light chain (antibody)
VH: B3 VH with G31D, Y32K
VL: QAVLNQPSSVSGSLGQRVSITCSGSSSNVGNGYVSWYQLIPGSAPRTLIYGDTSRASGVPDRFSGSRSGNTATLTISSLQAEDEADYFCASAEDSSSNAVFGSGTTLTVLGQPKSPPSVTLFPPSTEELNGNKATLVCLISDFYPGSVTVVWKADGSTITRNVETTRASKQSNSKYAASSYLSLTSSDWKSKGSYSCEVTHEGSTVTKTVKPSECS
notes: IgG, human IgG1 CH1-CH2-CH3; also called VH4-34 + CDR3-IL8 + E31D, Y32K
B5: IgG with VH4-34+CDR3-IL8_CDR2 Cow and BLV1H12 light chain (antibody)
VH: B3 VH with I48L, E50S, N52D, H53T, S54G, S56N, N58G
VL: B4 VL
notes: IgG, human IgG1 CH1-CH2-CH3; also called VH4-34 + CDR3-IL8 + Cow CDR2
B6: IgG with VH4-34+CDR3-IL8_CDR2 E50S and BLV1H12 light chain (antibody)
VH: B3 VH with E50S
VL: B4 VL
notes: IgG, human IgG1 CH1-CH2-CH3; also called VH4-34 + CDR3-IL8 + E50S
B7: IgG with VH4-34+CDR3-IL8_CDR1 Cow and BLV1H12 light chain (antibody)
VH: B3 VH with A23T, V24A, Y25S, G27F, F29L, G31D, Y32K, Y33A, W34V, S35G
VL: B4 VL
notes: IgG, human IgG1 CH1-CH2-CH3; also called VH4-34 + CDR3-IL8 + Cow CDR1

Columns and labels:
CXCR1 [1] = molecular target: T1, CXCR1; test: flow cytometry; fluorescence on CXCR1-U2OS cells over fluorescence on parental U2OS cells
Method: (§1) In an exemplary method, BLV1H12 IgG comprising a CDR3 with an IL-8 insert (e.g., the IL-8 sequence replaced a portion of the CDR3) was evaluated for binding to CXCR1 expressing cells by flow cytometry. Briefly, a cell line expressing functionally validated CXCR1 derived from U2OS cells was obtained from DiscoveRx and cultured per manufacturer's instructions (Cat#93-0226C3, DiscoveRx Corporation, Freemont, Calif.). The parental cell line U2OS was obtained from ATCC and cultured under the same conditions as the CXCR1 cells. Cell culture supernatants were then tested for binding to cells by flow cytometry. The adherent U2OS or CXCR1-U2OS cells were dissociated with Accutase (Innovative Cell Technologies, Inc., San Diego, Calif.), neutralized with an equal volume of media containing 10% serum, centrifuged at 1000 g, and resuspended in PBS with 2% BSA. Next, cells were dispensed into microtiter plates to achieve between 30,000 to 300,000 cells per well, centrifuged again, and resuspended in cell culture supernatant containing expressed IgG, or a dilution of IgG-containing cell culture supernatant. A fluorescent-conjugated anti-Human Fc antibody was used to detect binding of the expressed antibody to cells.
In an exemplary method, certain residues in VH4-34 CDR1 and/or CDR2 were substituted with corresponding CDR1 and/or CDR2 residues from BLV1H12. Briefly, the pFuse vector encoding heavy chain VH4-34 CDR3-IL8 was modified by overlap PCR to replace all of CDR1 with sequence from BLV1H12 (VH4-34+CDR3-IL8_CDR1 Cow, SEQ ID NO: 432) or all of CDR2 with sequence from BLV1 H12 (VH4-34+CDR3-IL8_CDR2 Cow, SEQ ID NO: 433).

CXCR1 [2] = molecular target: T1, CXCR1; test: flow cytometry, IgG-containing supernatant on CXCR1-U2OS cells, fluorescent anti-human Fc
Method: as §1
(§2) Additionally, the human germline CDR3-IL8 IgGs described in Example 5 were evaluated for binding to CXCR1 expressing cells by flow cytometry as described above. IgG binding to CXCR1-U2OS cells is indicated by higher fluorescence values, but non-specific binding to U2OS parental cells is also detectable.

CXCR1 [3] = molecular target: T1, CXCR1; test: flow cytometry; fluorescence on CXCR1-U2OS cells over fluorescence on parental U2OS cells; remark: listed apart in the source
Method: as §1, §2

CXCR1 [4] = molecular target: T1, CXCR1; test: flow cytometry with 2 ug/ml heparin sulfate, IgG normalized to 10 nM; CXCR1-U2OS against parental U2OS cells
Method: Cell culture supernatants were then tested for binding to cells by flow cytometry. The adherent U2OS or CXCR1-U2OS cells were dissociated with Accutase (Innovative Cell Technologies, Inc., San Diego, Calif.), neutralized with an equal volume of media containing 10% serum, centrifuged at 1000 g, and resuspended in PBS with 2% BSA. Next, cells were dispensed into microtiter plates to achieve between 30,000 to 300,000 cells per well, centrifuged again, and resuspended in cell culture supernatant containing expressed IgG, or a dilution of IgG-containing cell culture supernatant. A fluorescent-conjugated anti-Human Fc antibody was used to detect binding of the expressed antibody to cells.
In an exemplary method, variants of V1-51 were made by overlap PCR and subcloned into pFuse vector for expression as described in Example 4. […] These V1-51 variants were paired with heavy chains encoding VH4-34+CDR3-IL8 (SEQ ID NO: 430), VH4-34+CDR3-IL8_CDR1 Cow (SEQ ID NO: 432), VH4-34+CDR3-IL8_CDR2 Cow (SEQ ID NO: 433), or VH4-34+CDR3-IL8_CDR1 Cow CDR2 Cow, (SEQ ID NO: 436). Transfections and ELISA were carried out as described above, and flow cytometry was used to evaluate CXCR1 binding specificity as previously described, with the modification that cells were resuspended in 2% BSA in PBS plus 2 ug/ml Heparin sulfate, and IgGs were normalized to 10 nM during incubation on cells.

CXCR1 [5] = molecular target: T1, CXCR1; test: flow cytometry; fluorescence on CXCR1-U2OS cells over fluorescence on parental U2OS cells; remark: listed apart in the source
Method: as §1
Alternatively, using the BLV1H12 light chain variable region as a guide, the human germline sequences identified with closest homology were V1-47 and V1-51.

Binder	FACS CXCR1/Parental Ratio (CXCR1 [1])	also measured
B1	1.9	median fluorescence on CXCR1-U2OS (CXCR1 [2]): 9 AFU; Ratio of CXCR1/Parental (CXCR1 [3]): 1.9
B2		CXCR1 specificity (CXCR1 [4]): 11.1; CXCR1/Parental Ratio (CXCR1 [5]): 3.1
B3	9.3	median fluorescence on CXCR1-U2OS (CXCR1 [2]): 648 AFU; Ratio of CXCR1/Parental (CXCR1 [3]): 9.3
B4	8.1	
B5	8	
B6	4	
B7	2.1	
